Source: patent US20180044681A1

Biological target: EpCAM (Epithelial Cell Adhesion Molecule) (UniProt P16422)
Assay: binding to EpCAM-expressing cells; method not stated

Chain of EpCAM (Epithelial Cell Adhesion Molecule) (P16422 24-314 limits assumed): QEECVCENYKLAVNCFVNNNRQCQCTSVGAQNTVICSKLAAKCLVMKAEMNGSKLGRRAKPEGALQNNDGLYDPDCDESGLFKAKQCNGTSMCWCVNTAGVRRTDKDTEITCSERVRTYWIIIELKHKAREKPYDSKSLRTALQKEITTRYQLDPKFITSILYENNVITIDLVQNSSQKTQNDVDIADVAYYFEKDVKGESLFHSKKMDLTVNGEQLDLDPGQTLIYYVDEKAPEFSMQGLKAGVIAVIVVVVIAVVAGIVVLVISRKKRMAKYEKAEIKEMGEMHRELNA

- Kd: 2.2 nM
Substance: HEA125 antibody
